Laboratory results taken from patent publication US20140241984A1 (UNITED ARAB EMIRATES UNIVERSITY, published 2014).

T1: IAPP fibrils (UniProt P10997 34-70)
T1 construct: Amyloid fibrils of IAPP spotted in the dot blot; also called islet amyloid polypeptide
T1 peptide (looked up): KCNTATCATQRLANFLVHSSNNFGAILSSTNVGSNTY

T2: IAPP monomers (UniProt P10997 34-70)
T2 peptide (looked up): T1 peptide (looked up)

T3: fibrils of NAC (61-78) (human)
T3 construct: also called NAC (61-78) (F)
T3 peptide: EQVTNVGGAVVTGVTAVA

T4: α-synuclein peptide 8 (50-63) (human)
T4 construct: also called Peptide No. 8
T4 peptide: HGVATVAEKTKEQV

T5: α-synuclein peptide 7 (43-56) (human)
T5 construct: also called Peptide No. 7
T5 peptide: KTKEGVVHGVATVA

T6: α-synuclein peptide 11 (71-84) (human)
T6 construct: also called Peptide No. 11
T6 peptide: VTGVTAVAQKTVEG

T7: α-synuclein peptide 3 (15-28) (human)
T7 construct: also called Peptide No. 3
T7 peptide: VVAAAEKTKQGVAE

T8: α-synuclein peptide 9 (57-70) (human)
T8 construct: also called Peptide No. 9
T8 peptide: EKTKEQVTNVGGAV

T9: α-synuclein peptide 14 (92-105) (human)
T9 construct: also called Peptide No. 14
T9 peptide: TGFVKKDQLGKNEE

T10: α-synuclein peptide 15 (99-112) (human)
T10 construct: also called Peptide No. 15
T10 peptide: QLGKNEEGAPQEGI

T11: α-synuclein peptide 18 (120-133) (human)
T11 construct: also called Peptide No. 18
T11 peptide: PDNEAYEMPSEEGY

T12: α-synuclein peptide 13 (85-98) (human)
T12 construct: also called Peptide No. 13
T12 peptide: AGSIAAATGFVKKD

T13: α-synuclein peptide 6 (36-49) (human)
T13 construct: also called Peptide No. 6
T13 peptide: GVLYVGSKTKEGVV

T14: α-synuclein peptide 1 (1-14) (human)
T14 construct: also called Peptide No. 1
T14 peptide: MDVFMKGLSKAKEG

T15: α-synuclein peptide 16 (106-119) (human)
T15 construct: also called Peptide No. 16
T15 peptide: GAPQEGILEDMPVD

T16: α-synuclein peptide 17 (113-126) (human)
T16 construct: also called Peptide No. 17
T16 peptide: LEDMPVDPDNEAYE

T17: α-synuclein peptide 10 (64-77) (human)
T17 construct: also called Peptide No. 10
T17 peptide: TNVGGAVVTGVTAV

T18: α-synuclein peptide 12 (78-91) (human)
T18 construct: also called Peptide No. 12
T18 peptide: AQKTVEGAGSIAAA

T19: α-synuclein peptide 2 (8-21) (human)
T19 construct: also called Peptide No. 2
T19 peptide: LSKAKEGVVAAAEK

B1: Syn-O2 (antibody, IgG1, V domains shown)
VH: EVQLVESGGGLVQPKGSLKLSCAASGFTFNTYAMHWVRQAPGKGLEWVARIRSKSSNYATYYADSVKDRFTISRDDSQSMLYLQMNNLKTEDTAMYYCVRPLKWYFDVWGTGTTVTVSS
VL: QIVLTQSPAILSASPGEKVTMTCSASSTVNYMHWYQQKSGTSPKIWIYDTSKLASGVPARFSGSGSWTSYSLTISSMEAEDAATYYCQQWNSNPPTFGAGTKLELK
notes: same VH and VL as Syn-O1, Syn-O3, Syn-O4; also called mAb Syn-O2
B2: Syn-O3 (antibody, IgG1, V domains shown)
VH: B1 VH
VL: B1 VL
notes: same VH and VL as Syn-O1, Syn-O2, Syn-O4; also called mAb Syn-O3
B3: Syn-O4 (antibody, IgG1, V domains shown)
VH: B1 VH
VL: B1 VL
notes: same VH and VL as Syn-O1, Syn-O2, Syn-O3; also called mAb Syn-O4

Tests used:
IAPP fibrils = target: T1, IAPP fibrils; experiment: dot blot
Method: (§1) The membranes were blocked with 5% skimmed milk in PBST (PBS containing 0.05% Tween) and incubated for 1 h at room temperature. […] The membranes were washed and incubated with either 1/20000 diluted goat anti-mouse IgG-HRP (Jackson ImmunoResearch) or 1/10000 diluted goat anti-rabbit IgG-HRP (Jackson Immunoresearch) for 1 h at room temperature. The blots were then developed with Super signal West Pico chemiluminescent substrate.
(§2) C) To test the cross reactivity of our conformational monoclonal antibodies to different fragments of α-synuclein. […] The membranes were washed before incubating with either 1/20000 diluted goat anti-mouse IgG-HRP conjugate (Jackson Immunoresearch) or 1/300000 diluted chicken anti-goat IgG-HRP conjugate (Santa Cruz Biotechnology) for 1 h at room temperature. The blots were then developed with Super signal West Pico chemiluminescent substrate.

γ-synuclein fibrils = γ-synuclein fibrils (UniProt O76070 1-127); experiment: dot blot
γ-synuclein fibrils, sequence (O76070 whole entry): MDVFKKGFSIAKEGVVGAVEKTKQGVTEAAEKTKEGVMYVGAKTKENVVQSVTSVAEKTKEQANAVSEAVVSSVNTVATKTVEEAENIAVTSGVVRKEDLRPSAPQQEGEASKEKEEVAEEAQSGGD
Method: as §1, §2

IAPP monomers = target: T2, IAPP monomers; experiment: dot blot
Method: as §1, §2

A-beta fibrils = target: T20, A-beta fibrils (UniProt P05067 672-713, limits assumed); experiment: dot blot
T20 construct: Amyloid fibrils of A-beta spotted in the dot blot; also called β-amyloid
Method: as §1, §2

fibrils of NAC (61-95) = target: T21, fibrils of NAC (61-95) (human); experiment: dot blot
T21 construct: also called NAC region (61-95) (F)
Method: as §1, §2

fibrils of NAC (61-78) = target: T3, fibrils of NAC (61-78); experiment: dot blot
Method: as §1, §2

β-synuclein monomers = β-synuclein monomers (UniProt Q16143 1-134); experiment: dot blot
β-synuclein monomers, sequence (Q16143 whole entry): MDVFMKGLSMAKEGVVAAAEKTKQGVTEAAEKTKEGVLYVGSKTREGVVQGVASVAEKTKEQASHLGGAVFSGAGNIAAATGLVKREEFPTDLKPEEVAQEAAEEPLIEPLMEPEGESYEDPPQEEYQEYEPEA
Method: as §1, §2

γ-synuclein monomers = γ-synuclein monomers (UniProt O76070 1-127); experiment: dot blot
γ-synuclein monomers, sequence (O76070 whole entry): as the sequence (O76070 whole entry) above
Method: as §1, §2

A-beta monomers = target: T22, A-beta monomers (UniProt P05067 672-713, limits assumed); experiment: dot blot
T22 construct: also called β-amyloid monomers
Method: as §1, §2

β-synuclein fibrils = β-synuclein fibrils (UniProt Q16143 1-134); experiment: dot blot
β-synuclein fibrils, sequence (Q16143 whole entry): as the sequence (Q16143 whole entry) above
Method: as §1, §2

[1] = target: T4, α-synuclein peptide 8 (50-63); experiment: pepscan ELISA
Method: (§3) To confirm the pepscan results using dot blot the mAbs were also tested by Pepscan using ELISA. […] The plate was washed with PBST and 50 μl of substrate (SuperSignal ELISA Femto Maximum Sensitivity Substrate, Thermo Scientific) was added and immediately read the plate using Victor X3 microtiter plate reader. After the ELISA signals were measured, the plate was also exposed onto X-ray film to develop the spots.

[2] = target: T5, α-synuclein peptide 7 (43-56); experiment: pepscan ELISA
Method: as §3

[3] = target: T6, α-synuclein peptide 11 (71-84); experiment: pepscan ELISA
Method: as §3

[4] = target: T7, α-synuclein peptide 3 (15-28); experiment: pepscan ELISA
Method: as §3

[5] = target: T8, α-synuclein peptide 9 (57-70); experiment: pepscan ELISA
Method: as §3

[6] = target: T9, α-synuclein peptide 14 (92-105); experiment: pepscan ELISA
Method: as §3

[7] = target: T10, α-synuclein peptide 15 (99-112); experiment: pepscan ELISA
Method: as §3

[8] = target: T11, α-synuclein peptide 18 (120-133); experiment: pepscan ELISA
Method: as §3

[9] = target: T12, α-synuclein peptide 13 (85-98); experiment: pepscan ELISA
Method: as §3

[10] = target: T13, α-synuclein peptide 6 (36-49); experiment: pepscan ELISA
Method: as §3

[11] = target: T14, α-synuclein peptide 1 (1-14); experiment: pepscan ELISA
Method: as §3

[12] = target: T15, α-synuclein peptide 16 (106-119); experiment: pepscan ELISA
Method: as §3

[13] = target: T16, α-synuclein peptide 17 (113-126); experiment: pepscan ELISA
Method: as §3

[14] = target: T17, α-synuclein peptide 10 (64-77); experiment: pepscan ELISA
Method: as §3

[15] = target: T18, α-synuclein peptide 12 (78-91); experiment: pepscan ELISA
Method: as §3

[16] = target: T19, α-synuclein peptide 2 (8-21); experiment: pepscan ELISA
Method: as §3

Binder | binding result (IAPP fibrils) | binding result (γ-synuclein fibrils) | binding result (IAPP monomers) | binding result (A-beta fibrils) | binding result (fibrils of NAC (61-95)) | binding result (fibrils of NAC (61-78)) | binding result (β-synuclein monomers) | binding result (γ-synuclein monomers) | binding result (A-beta monomers) | binding result (β-synuclein fibrils) | binding result [1] | binding result [2] | binding result [3] | binding result [4] | binding result [5] | binding result [6] | binding result [7] | binding result [8] | binding result [9] | binding result [10] | other results
B1 | no binding (tested: 50 ng/ml antibody, 50 ng spotted) | no binding (tested: 50 ng spotted) | no binding (tested: 50 ng/ml antibody, 50 ng spotted) | no binding (tested: 50 ng/ml antibody, 50 ng spotted) | no binding (tested: 50 ng spotted) | no binding (tested: 50 ng spotted) | no binding (tested: 50 ng spotted) | no binding (tested: 50 ng spotted) | no binding (tested: 50 ng/ml antibody, 50 ng spotted) | no binding (tested: 50 ng spotted) | no binding (tested: 100 ng/ml antibody, 500 ng/well peptide) | no binding (tested: 100 ng/ml antibody, 500 ng/well peptide) | no binding (tested: 100 ng/ml antibody, 500 ng/well peptide) | no binding (tested: 100 ng/ml antibody, 500 ng/well peptide) | no binding (tested: 100 ng/ml antibody, 500 ng/well peptide) | no binding (tested: 100 ng/ml antibody, 500 ng/well peptide) | no binding (tested: 100 ng/ml antibody, 500 ng/well peptide) | no binding (tested: 100 ng/ml antibody, 500 ng/well peptide) | no binding (tested: 100 ng/ml antibody, 500 ng/well peptide) | no binding (tested: 100 ng/ml antibody, 500 ng/well peptide) | binding result [11]: no binding (tested: 100 ng/ml antibody, 500 ng/well peptide); binding result [12]: no binding (tested: 100 ng/ml antibody, 500 ng/well peptide); binding result [13]: no binding (tested: 100 ng/ml antibody, 500 ng/well peptide); binding result [14]: no binding (tested: 100 ng/ml antibody, 500 ng/well peptide); binding result [15]: no binding (tested: 100 ng/ml antibody, 500 ng/well peptide); binding result [16]: no binding (tested: 100 ng/ml antibody, 500 ng/well peptide)
B2 | no binding (tested: 50 ng/ml antibody, 50 ng spotted) | no binding (tested: 50 ng spotted) | no binding (tested: 50 ng/ml antibody, 50 ng spotted) | no binding (tested: 50 ng/ml antibody, 50 ng spotted) | no binding (tested: 50 ng spotted) | no binding (tested: 50 ng spotted) | no binding (tested: 50 ng spotted) | no binding (tested: 50 ng spotted) | no binding (tested: 50 ng/ml antibody, 50 ng spotted) | no binding (tested: 50 ng spotted) | no binding (tested: 100 ng/ml antibody, 500 ng/well peptide) | no binding (tested: 100 ng/ml antibody, 500 ng/well peptide) | no binding (tested: 100 ng/ml antibody, 500 ng/well peptide) | no binding (tested: 100 ng/ml antibody, 500 ng/well peptide) | no binding (tested: 100 ng/ml antibody, 500 ng/well peptide) | no binding (tested: 100 ng/ml antibody, 500 ng/well peptide) | no binding (tested: 100 ng/ml antibody, 500 ng/well peptide) | no binding (tested: 100 ng/ml antibody, 500 ng/well peptide) | no binding (tested: 100 ng/ml antibody, 500 ng/well peptide) | no binding (tested: 100 ng/ml antibody, 500 ng/well peptide) | binding result [11]: no binding (tested: 100 ng/ml antibody, 500 ng/well peptide); binding result [12]: no binding (tested: 100 ng/ml antibody, 500 ng/well peptide); binding result [13]: no binding (tested: 100 ng/ml antibody, 500 ng/well peptide); binding result [14]: no binding (tested: 100 ng/ml antibody, 500 ng/well peptide); binding result [15]: no binding (tested: 100 ng/ml antibody, 500 ng/well peptide); binding result [16]: no binding (tested: 100 ng/ml antibody, 500 ng/well peptide)
B3 | no binding (tested: 50 ng/ml antibody, 50 ng spotted) | no binding (tested: 50 ng spotted) | no binding (tested: 50 ng/ml antibody, 50 ng spotted) | no binding (tested: 50 ng/ml antibody, 50 ng spotted) | no binding (tested: 50 ng spotted) | no binding (tested: 50 ng spotted) | no binding (tested: 50 ng spotted) | no binding (tested: 50 ng spotted) | no binding (tested: 50 ng/ml antibody, 50 ng spotted) | no binding (tested: 50 ng spotted) | no binding (tested: 100 ng/ml antibody, 500 ng/well peptide) | no binding (tested: 100 ng/ml antibody, 500 ng/well peptide) | no binding (tested: 100 ng/ml antibody, 500 ng/well peptide) | no binding (tested: 100 ng/ml antibody, 500 ng/well peptide) | no binding (tested: 100 ng/ml antibody, 500 ng/well peptide) | no binding (tested: 100 ng/ml antibody, 500 ng/well peptide) | no binding (tested: 100 ng/ml antibody, 500 ng/well peptide) | no binding (tested: 100 ng/ml antibody, 500 ng/well peptide) | no binding (tested: 100 ng/ml antibody, 500 ng/well peptide) | no binding (tested: 100 ng/ml antibody, 500 ng/well peptide) | binding result [11]: no binding (tested: 100 ng/ml antibody, 500 ng/well peptide); binding result [12]: no binding (tested: 100 ng/ml antibody, 500 ng/well peptide); binding result [13]: no binding (tested: 100 ng/ml antibody, 500 ng/well peptide); binding result [14]: no binding (tested: 100 ng/ml antibody, 500 ng/well peptide); binding result [15]: no binding (tested: 100 ng/ml antibody, 500 ng/well peptide); binding result [16]: no binding (tested: 100 ng/ml antibody, 500 ng/well peptide)
